Test results: the PETadex activity labels (doi:10.1111/febs.16924)

What was measured:
pNP-C12 = settings: pH 8; 30 °C
[1] = substrate: Polyester-polyurethane (Impranil DLN); assay: Proxy for plastic degradation [Proton (H+) release, phenol red pH-indicator assay]; settings: 40 °C
PET [2] = assay: Proxy for plastic degradation [Released monomer concentration (HPLC/LC-MS) (TPA+MHET+BHET)] (µmol TPA-EG / mg enzyme / day); settings: pH 8
PET [3] = assay: Proxy for plastic degradation [Released monomer concentration (UHPLC) (TPA+MHET+BHET, as TPA-EG units)] (µmol TPA-EG/mg enzyme/day); settings: pH 8

Protein | Km (pNP-C12) [µM] | kcat (pNP-C12) [s⁻¹] | kcat/Km (pNP-C12) [M⁻¹ s⁻¹] | Proxy for plastic degradation [1] [µM] | Proxy for plastic degradation (PET [2]) | Proxy for plastic degradation (PET [3]; 40 °C) | Proxy for plastic degradation (PET [3]; 50 °C) | Proxy for plastic degradation (PET [2]; part of the chain shown) | Proxy for plastic degradation (PET [3]; 30 °C, part of the chain shown)
unnamed (protein) MAENPYERGPAPTTSSIEASRGSFATSTVTVSRLAVSGFGGGTIYYPTSTTAGTFGAISIAPGFTALQSSIAWLGPRLASQGFVVFTIDTLTTSDQPDSRGRQLLAALDYLTQQSSVRSRIDSSRLGVVGHSMGGGGTLEAARSRPSLQAAIPLTGWNLTKTWSTVRVPTLVVGAQADTVAPVASHSIPFYNSLPSSLDKAYLELRGASHFAPNSSNTTIAKYTLSWLKRFIDNDTRYEQFLCPIPSTSLSISDYRGNCPHNG | 730 | 8.26 | 11300 | 790 | 0.17 | 0.17 |  |  | 
unnamed (protein) MDGVLWRVRTAALMAALLALAAWALVWASPSVEAQSNPYQRGPNPTRSALTADGPFSVATYTVSRLSVSGFGGGVIYYPTGTSLTFGGIAMSPGYTADASSLAWLGRRLASHGFVVLVINTNSRFDYPDSRASQLSAALNYLRTSSPSAVRARLDANRLAVAGHSMGGGGTLRIAEQNPSLKAAVPLTPWHTDKTFNTSVPVLIVGAEADTVAPVSQHAIPFYQNLPSTTPKVYVELDNASHFAPNSNNAAISVYTISWMKLWVDNDTRYRQFLCNVNDPALSDFRTNNRHCQ |  |  |  |  | 12.8 |  | 12.8 |  | 
unnamed (protein) MNFPRASRLMQAAVLGGLMAVSAAATAQTNPYARGPNPTAASLEASAGPFTVRSFTVSRPSGYGAGTVYYPTNAGGTVGAIAIVPGYTARQSSIKWWGPRLASHGFVVITIDTNSTLDQPSSRSSQQMAALRQVASLNGTSSSPIYGKVDTARMGVMGWSMGGGGSLISAANNPSLKAAAPQAPWDSSTNFSSVTVPTLIFACENDSIAPVNSSALPIYDSMSRNAKQFLEINGGSHSCANSGNSNQALIGKKGVAWMKRFMDNDTRYSTFACENPNSTRVSDFRTANCS |  |  |  |  |  |  |  | 4.33 | 4.33
